# According to paper PMC3179519:
# Molecular target: Salmonella SJW1660 flagellin capable of forming L-type straight filaments (Salmonella (S. typhimurium)) (UniProt P06179)
# Assay: co-sedimentation; monomers of SJW1660 flagellin and FliC(XynA) mixed at 1:1 to 1:5 (w/w) in 20 mM Tris-HCl, 150 mM NaCl (pH 7.8), polymerized with ammonium sulfate (0.4-0.6 M), 2 days at room temperature; centrifuged, pellet dissolved in buffer without AS, SDS-PAGE with densitometry; filaments also seen by dark-field microscopy and AFM
substance,measurement,value
FliC(XynA) fusion protein (flagellin-xylanase A chimera) (from UniProt P18429 29-213),"band intensity of FliC(XynA) in the copolymer pellet, 1:1 mixing ratio (FliC band 49.3)",49.6
same,"band intensity of FliC(XynA) in the copolymer pellet, 1:2 mixing ratio (FliC band 50.7)",34.2
